Experimental data: PMC5728393 (Nucleic Acids Research, 2017)

T1: PadR (Bacillus spizizenii, UniProt E0TW95)
T1 sequence (E0TW95 1-182): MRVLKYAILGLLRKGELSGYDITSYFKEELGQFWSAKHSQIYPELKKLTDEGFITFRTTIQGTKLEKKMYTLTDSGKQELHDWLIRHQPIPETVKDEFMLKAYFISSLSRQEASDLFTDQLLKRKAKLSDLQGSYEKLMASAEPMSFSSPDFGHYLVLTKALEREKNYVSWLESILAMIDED

T2: PadR WT (Bacillus subtilis, UniProt E0TW95 1-182)
T2 sequence: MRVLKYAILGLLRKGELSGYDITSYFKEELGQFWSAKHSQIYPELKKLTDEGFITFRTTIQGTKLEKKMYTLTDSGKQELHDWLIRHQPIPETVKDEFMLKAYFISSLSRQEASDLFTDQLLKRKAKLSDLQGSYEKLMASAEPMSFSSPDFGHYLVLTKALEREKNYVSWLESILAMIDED

B1: phenolic acid decarboxylase regulator (PadR) from Bacillus subtilis, wild type (natural protein, UniProt E0TW95 1-182, looked up)
chain: MRVLKYAILGLLRKGELSGYDITSYFKEELGQFWSAKHSQIYPELKKLTDEGFITFRTTIQGTKLEKKMYTLTDSGKQELHDWLIRHQPIPETVKDEFMLKAYFISSLSRQEASDLFTDQLLKRKAKLSDLQGSYEKLMASAEPMSFSSPDFGHYLVLTKALEREKNYVSWLESILAMIDED
B2: operator T17A/T17'A (dsDNA)
DNA 1: CGGAACATGTATATAGATACATGATTAC
DNA 2: GTAATCATGTATCTATATACATGTTCCG
B3: bridge operator (dsDNA)
DNA 1: AGTTACATGATTACCGGAACATGTAAAT
DNA 2: ATTTACATGTTCCGGTAATCATGTAACT
B4: operator C6T/C6'T (dsDNA)
DNA 1: CGGAATATGTAAATAGTTACATAATTAC
DNA 2: GTAATTATGTAACTATTTACATATTCCG
B5: operator T18G/T18'G (dsDNA)
DNA 1: CGGAACATGTCAATAGTGACATGATTAC
DNA 2: GTAATCATGTCACTATTGACATGTTCCG
B6: operator G9T/G9'T (dsDNA)
DNA 1: CGGAACATTTAAATAGTTAAATGATTAC
DNA 2: GTAATCATTTAACTATTTAAATGTTCCG
B7: operator C6A/C6'A (dsDNA)
DNA 1: CGGAAAATGTAAATAGTTACATTATTAC
DNA 2: GTAATAATGTAACTATTTACATTTTCCG
B8: operator C6G/C6'G (dsDNA)
DNA 1: CGGAAGATGTAAATAGTTACATCATTAC
DNA 2: GTAATGATGTAACTATTTACATCTTCCG
B9: operator T10A/T10'A (dsDNA)
DNA 1: CGGAACATGAAAATAGTTTCATGATTAC
DNA 2: GTAATCATGAAACTATTTTCATGTTCCG
B10: operator T18C/T18'C (dsDNA)
DNA 1: CGGAACATGTGAATAGTCACATGATTAC
DNA 2: GTAATCATGTGACTATTCACATGTTCCG
B11: operator G9A/G9'A (dsDNA)
DNA 1: CGGAACATATAAATAGTTATATGATTAC
DNA 2: GTAATCATATAACTATTTATATGTTCCG
B12: operator T8A/T8'A (dsDNA)
DNA 1: CGGAACAAGTAAATAGTTACTTGATTAC
DNA 2: GTAATCAAGTAACTATTTACTTGTTCCG

These molecules were tested against T1, PadR (assay: isothermal titration calorimetry). Conditions: not given.
Assay type: binding
`O=C(O)/C=C/c1ccc(O)cc1` [p-coumaric acid] gave a Kd of 6200 ± 100 nM.

What follows are molecules tested against T1, PadR (assay: X-ray crystal structure of the complex). Conditions: 10 mM ferulic acid soak, 22% PEG 3350, 0.1 M sodium acetate pH 4.0; interdomain pocket.
Assay type: binding
With `COc1cc(/C=C/C(=O)O)ccc1O` [ferulic acid] the “X-ray crystal structure of the complex (soaked crystals)” value was “we also determined a PadR structure in complex with ferulic acid (PadR3FA)”.

Target: the molecule itself
Experiment: SEC
Conditions: not given
For B1, the “stoichiometry N” value was 2.

What follows are molecules tested against T2, PadR WT (assay: fluorescence polarization). Conditions: not given.
Work on B2 yielded a Kd of 9.4 ± 1.4 nM. B3 gave a Kd of 8.9 ± 2.1 nM. For B4, the Kd was 160 ± 6.9 nM. For B5, the Kd was 9.9 ± 1.7 nM. Molecule B6 has a Kd of 37.8 ± 6.7 nM. B7 gave a Kd of 312 ± 45.5 nM. With B8 the Kd was 200 ± 21.7 nM. B9 showed a Kd of 11.6 ± 1.3 nM. Work on B10 yielded a Kd of 20.8 ± 1.9 nM. In the case of B11, the Kd is reported as 15.7 ± 2.9 nM. B12 was tested, and the Kd was 41 ± 4 nM.
